Data as given in PMC3694778.

Key:
[1] = test system: CLOCK bHLH-PAS-AB;BMAL1 bHLH-PAS-AB (mouse;mouse); experiment: fluorescence anisotropy; conditions: not given in the material (Supplementary Methods not held)
[2] = test system: CLOCK bHLH-PAS-AB;BMAL1 bHLH-PAS-AB (mouse;mouse); experiment: fluorescence anisotropy competition; conditions: not given in the material (Supplementary Methods not held)

mPer2 E2-box DNA, fluorescein labeled was tested, and the Kd [1] was 59 nM.

mPer2 E2-box DNA 18-mer, unlabeled gave a Kd [2] of 13 nM.

In the case of mPer1 E1-box DNA 18-mer, unlabeled, the Kd [2] is reported as 9 nM.
